Values belong to the molecule of their own block, whether it stands above or below them. Non-standard residues stand in square brackets, D forms with d. Groups on a side chain read outwards from the residue. *: point of attachment. Cy5 silica nanoparticle = Cy5 dye-containing core-shell silica nanoparticle (~7 nm); PEG = not defined here; 124I = [124I]*
Experiments:
[1] = molecular target: melanocortin-1 receptor (MC1R) on murine B16/F1 and B16F10 melanoma cells (mouse) (UniProt Q01727); assay: same type of competitive binding assay (given for reference)
Sequence of melanocortin-1 receptor (MC1R) on murine B16/F1 and B16F10 melanoma cells (mouse) (Q01727 whole entry, one chain of several): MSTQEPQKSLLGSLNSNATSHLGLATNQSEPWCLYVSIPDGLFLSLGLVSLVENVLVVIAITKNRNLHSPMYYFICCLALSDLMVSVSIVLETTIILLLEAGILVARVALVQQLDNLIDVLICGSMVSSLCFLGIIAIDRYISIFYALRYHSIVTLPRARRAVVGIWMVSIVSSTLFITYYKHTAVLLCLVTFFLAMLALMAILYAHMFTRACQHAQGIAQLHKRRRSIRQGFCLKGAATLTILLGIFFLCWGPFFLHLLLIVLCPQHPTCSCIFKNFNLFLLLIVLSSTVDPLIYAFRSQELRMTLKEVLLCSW

[2] = molecular target: melanocortin-1 receptor (MC1R) on murine B16/F1 and B16F10 melanoma cells (mouse) (UniProt Q01727); assay: competitive binding against ^125I-NDP, cultured B16/F1 melanoma cells
[3] = molecular target: melanocortin-1 receptor (MC1R) on murine B16/F1 and B16F10 melanoma cells (mouse) (UniProt Q01727); assay: flow cytometry dose response, B16F10 melanoma cells
[4] = molecular target: melanocortin-1 receptor (MC1R) on human M21 melanoma cells (human) (UniProt Q01726); assay: flow cytometry dose response, M21 melanoma cells
Sequence of melanocortin-1 receptor (MC1R) on human M21 melanoma cells (human) (Q01726 whole entry): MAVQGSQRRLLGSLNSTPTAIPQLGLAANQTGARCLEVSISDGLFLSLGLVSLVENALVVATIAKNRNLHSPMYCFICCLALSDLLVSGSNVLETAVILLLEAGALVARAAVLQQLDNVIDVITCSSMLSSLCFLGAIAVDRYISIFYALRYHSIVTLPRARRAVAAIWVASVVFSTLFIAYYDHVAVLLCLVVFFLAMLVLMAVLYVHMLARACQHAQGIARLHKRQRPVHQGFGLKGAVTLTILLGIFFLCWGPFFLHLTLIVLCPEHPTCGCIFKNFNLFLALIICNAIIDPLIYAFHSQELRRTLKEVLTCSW

[5] = molecular target: T1, αvβ3 integrin receptor (human, on M21 melanoma cells and HUVEC cells) (human, UniProt P06756 31-1048; P05106 27-788); assay: cell-based or functional assay
T1 sequence (P06756 31-1048, chain 1 of 2): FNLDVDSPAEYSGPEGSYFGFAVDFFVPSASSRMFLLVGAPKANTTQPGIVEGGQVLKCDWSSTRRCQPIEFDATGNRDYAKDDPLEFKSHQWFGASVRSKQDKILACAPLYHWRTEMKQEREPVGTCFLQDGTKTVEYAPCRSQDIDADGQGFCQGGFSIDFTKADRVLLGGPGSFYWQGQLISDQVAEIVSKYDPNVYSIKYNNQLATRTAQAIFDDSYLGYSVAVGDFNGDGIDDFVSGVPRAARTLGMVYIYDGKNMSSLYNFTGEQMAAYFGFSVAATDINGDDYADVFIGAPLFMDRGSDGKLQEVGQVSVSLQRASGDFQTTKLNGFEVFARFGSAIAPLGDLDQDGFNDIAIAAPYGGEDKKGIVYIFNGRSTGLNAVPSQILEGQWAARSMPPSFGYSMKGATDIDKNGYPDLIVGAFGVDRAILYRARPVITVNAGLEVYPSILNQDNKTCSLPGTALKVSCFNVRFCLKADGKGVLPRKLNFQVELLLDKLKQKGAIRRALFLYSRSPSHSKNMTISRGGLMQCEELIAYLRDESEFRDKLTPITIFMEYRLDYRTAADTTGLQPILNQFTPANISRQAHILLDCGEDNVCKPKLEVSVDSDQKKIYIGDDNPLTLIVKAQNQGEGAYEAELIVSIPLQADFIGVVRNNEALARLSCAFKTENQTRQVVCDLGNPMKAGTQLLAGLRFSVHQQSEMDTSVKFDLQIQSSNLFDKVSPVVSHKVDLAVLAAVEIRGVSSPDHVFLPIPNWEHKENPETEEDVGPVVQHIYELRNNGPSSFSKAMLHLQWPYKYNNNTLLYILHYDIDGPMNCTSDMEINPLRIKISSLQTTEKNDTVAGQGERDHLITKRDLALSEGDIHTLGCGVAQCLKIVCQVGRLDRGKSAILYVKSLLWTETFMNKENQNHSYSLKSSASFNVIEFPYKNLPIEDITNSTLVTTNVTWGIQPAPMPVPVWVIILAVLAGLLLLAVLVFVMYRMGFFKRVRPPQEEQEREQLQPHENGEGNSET
T1 sequence (P05106 27-788, chain 2 of 2): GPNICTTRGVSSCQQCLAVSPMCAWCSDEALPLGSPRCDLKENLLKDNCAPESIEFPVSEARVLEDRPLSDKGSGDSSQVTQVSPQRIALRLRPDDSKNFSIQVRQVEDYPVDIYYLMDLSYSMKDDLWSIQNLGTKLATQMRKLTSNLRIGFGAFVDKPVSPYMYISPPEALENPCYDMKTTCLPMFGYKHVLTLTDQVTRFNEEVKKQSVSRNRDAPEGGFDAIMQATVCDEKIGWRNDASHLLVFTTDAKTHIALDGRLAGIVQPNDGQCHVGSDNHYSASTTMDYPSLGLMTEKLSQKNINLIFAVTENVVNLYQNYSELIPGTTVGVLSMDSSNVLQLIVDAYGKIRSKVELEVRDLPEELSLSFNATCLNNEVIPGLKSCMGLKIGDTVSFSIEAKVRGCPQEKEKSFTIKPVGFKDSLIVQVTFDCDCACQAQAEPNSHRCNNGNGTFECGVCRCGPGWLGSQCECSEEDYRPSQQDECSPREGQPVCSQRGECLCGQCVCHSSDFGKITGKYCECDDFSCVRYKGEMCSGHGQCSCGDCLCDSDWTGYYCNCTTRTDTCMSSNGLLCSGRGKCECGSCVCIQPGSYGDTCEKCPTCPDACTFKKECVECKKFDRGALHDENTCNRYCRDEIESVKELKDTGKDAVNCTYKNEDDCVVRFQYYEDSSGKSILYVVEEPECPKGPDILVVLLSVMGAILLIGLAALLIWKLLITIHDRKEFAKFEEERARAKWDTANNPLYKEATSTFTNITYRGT

[6] = molecular target: T1, αvβ3 integrin receptor (human, on M21 …); assay: competitive binding, gamma counting, M21 cells
Experimental: Nonspecific binding was determined in the presence of a 1000-fold excess of cRGD (Peptides International, Louisville, Ky.). Scatchard plots of the binding data were generated and analyzed using linear regression analyses (Microsoft Excel 2007) to derive receptor-binding parameters (Kd, Bmax, IC50).
To examine in vitro binding affinity and specificity of ¹²⁴I-cRGDY-PEG-dots and ¹²⁴I-PEGdots to tumor and vascular endothelial surfaces, αᵥβ₃ integrin-overexpressing (M21) and nonexpressing (M21L) melanoma and human umbilical vein endothelial (HUVECs) cell lines were used. Highly specific linear and saturable binding of the cRGDY-PEG-dots was observed over a range of particle concentrations (0 to 8 ng/ml) and incubation times (up to 5-hrs), with maximum differential binding at 4-hr and ˜2.0 ng/ml particle concentration (data not shown) using flow cytometry. Receptor-binding specificity of ¹²⁴I-cRGDY-PEG dots was tested using γ-counting methods after initially incubating M21 cells with excess non-radiolabeled cRGD and then adding various concentrations of the radiolabeled targeted probe (FIG. 8A). […] Based on the Bmax value, the αᵥβ₃ integrin receptor density was estimated to be […] per M21 cell, in reasonable agreement with the previously published estimate of 5.6×10⁴ for this cell line. Cressman, et al., Binding and uptake of RGD-containing ligands to cellular αᵥβ₃ integrins. […]

[7] = molecular target: T1, αvβ3 integrin receptor (human, on M21 …); assay: Scatchard analysis, gamma counting, M21 cells
Experimental: To assay particle binding and specificity for M21 cells, 24-well plates were coated with 10 μg/ml collagen type I (BD Biosciences, Bedford, Mass.) in phosphate buffered saline (PBS) and incubated (37° C., 30 min). M21 cells (3.0-4.0×10^5 cells/well) were grown to confluency and washed with RPMI 1640 media/0.5% bovine serum albumin (BSA). ¹²⁴I-cRGD-PEG-nanoparticles (0-4.0 ng/ml) were added to wells and cells incubated (25° C., 4 hours), washed with RPMI 1640 media/0.5% BSA, and dissolved in 0.2 M NaOH. […] Nonspecific binding was determined in the presence of a 1000-fold excess of cRGD (Peptides International, Louisville, Ky.). Scatchard plots of the binding data were generated and analyzed using linear regression analyses (Microsoft Excel 2007) to derive receptor-binding parameters (Kd, Bmax, IC50).
To examine in vitro binding affinity and specificity of ¹²⁴I-cRGDY-PEG-dots and ¹²⁴I-PEGdots to tumor and vascular endothelial surfaces, αᵥβ₃ integrin-overexpressing (M21) and nonexpressing (M21L) melanoma and human umbilical vein endothelial (HUVECs) cell lines were used. Highly specific linear and saturable binding of the cRGDY-PEG-dots was observed over a range of particle concentrations (0 to 8 ng/ml) and incubation times (up to 5-hrs), with maximum differential binding at 4-hr and ˜2.0 ng/ml particle concentration (data not shown) using flow cytometry. […]

Molecule: alpha-MSH-PEG-Cy5-C dots (N-Ac-Cys-(Ahx)2-D-Lys-ReCCMSH peptide-bound nanoparticles)
- IC50 [2]: 0.66 nM
- saturation concentration [3]: 100 nM
- saturation concentration [4]: 100 nM

B1: cRGDY-PEG-dots (non-radiolabeled, cRGDY peptide-bearing, PEG-coated Cy5 core-shell silica nanoparticles) (other)
peptide: cyclo(RGD[dY]C([maleimide-PEG-Cy5 silica nanoparticle]))
modifications: not fully specified; reading uncertain; also: Cys linked via maleimide to PEG on Cy5 silica nanoparticle
- methylene blue uptake (absorbance) of attached M21 cells without particle pre-incubation relative to particle-exposed cells [5]: 2 fold
- multivalent enhancement factor (ratio of the cRGD peptide to cRGDY-PEG-dot IC50 values), anti-adhesion assay, M21 cells on vitronectin-coated plates [5]: > 2 fold

The remaining lines, values ahead:

- IC50 [1]: 2.1 nM
Molecule: DOTA-ReCCMSH (original ReCCMSH targeting molecule) (peptide)

- IC50 [6]: 1.2 nM
- Kd [7]: 0.51 nM
B2: ^124I-cRGDY-PEG-dots (radioiodinated, cRGDY peptide-bearing, PEG-coated Cy5 core-shell silica nanoparticles) (other)
peptide: cyclo(RGD[dY](124I)C([maleimide-PEG-Cy5 silica nanoparticle]))
modifications: not fully specified; reading uncertain; also: Cys linked via maleimide to PEG on Cy5 silica nanoparticle

Source: patent publication US20230158180A1 (SLOAN KETTERING INSTITUTE FOR CANCER RESEARCH, published 2023)
